According to publication PMC9408938:

Experiments:
[1] = molecular target: T1, Human interferon-gamma receptor chain-1 (human (endogenous in WISH)) (UniProt P15260)
T1 sequence: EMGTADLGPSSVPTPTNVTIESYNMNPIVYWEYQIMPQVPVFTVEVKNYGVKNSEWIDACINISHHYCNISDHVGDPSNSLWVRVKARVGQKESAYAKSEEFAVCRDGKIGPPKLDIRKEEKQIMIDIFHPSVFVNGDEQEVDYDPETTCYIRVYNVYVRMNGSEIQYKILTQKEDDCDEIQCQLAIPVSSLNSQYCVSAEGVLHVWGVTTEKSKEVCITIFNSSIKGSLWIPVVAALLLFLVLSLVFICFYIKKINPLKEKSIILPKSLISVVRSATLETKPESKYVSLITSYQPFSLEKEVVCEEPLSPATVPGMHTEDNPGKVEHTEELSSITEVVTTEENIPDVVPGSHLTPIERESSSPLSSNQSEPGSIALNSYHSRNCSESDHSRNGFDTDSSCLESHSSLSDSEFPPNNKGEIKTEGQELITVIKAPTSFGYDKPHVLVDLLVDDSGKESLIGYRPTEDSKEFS

[2] = molecular target: T1, Human interferon-gamma receptor chain-1 (human (endogenous in WISH)); remark: listed apart in the source

Human interferon-gamma, sequence (P01579 24-161): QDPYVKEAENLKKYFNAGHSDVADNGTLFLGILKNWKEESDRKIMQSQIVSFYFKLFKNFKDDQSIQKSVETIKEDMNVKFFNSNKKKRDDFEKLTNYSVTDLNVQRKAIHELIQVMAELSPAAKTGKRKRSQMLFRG

- ratio of pSTAT1 to total STAT1 (Western blot, normalised to β-actin) in hIFN γ-stimulated WISH cells cultured under standard conditions (control) (ratio pSTAT1/STAT1) [1]: 3.14
- ratio of pSTAT1 to total STAT1 (Western blot, normalised to β-actin) in hIFN γ-stimulated WISH cells cultured with 30 mM NaClO3 (reduced HS sulfation) (ratio pSTAT1/STAT1) [1]: 1.7
- antiproliferative activity of hIFN γ (15 ng/mL) by modified kynurenine bioassay, optical density at 490 nm, WISH cells cultured with 30 mM NaClO3 [2]: 0.051 OD 490 nm
- antiproliferative activity of hIFN γ (15 ng/mL) by modified kynurenine bioassay, optical density at 490 nm, untreated WISH cells [2]: 0.377 OD 490 nm
- lowering of the biological activity (hIFN γ signal, kynurenine bioassay) in WISH cells cultured with NaClO3 against untreated cells [2]: 86%
Substance: Human interferon-gamma (from UniProt P01579 24-161) (ligand)
